# Assay results: US20260266848A1, “COMPOSITIONS AND METHODS FOR DIAGNOSING AND TREATING DYSTONIA” (Duke University, priority 2023, published 2026)
# B1: LIPG (protein, UniProt Q9Y5X9 21-500, looked up)
# Endothelial lipase: SPVPFGPEGRLEDKLHKPKATQTEVKPSVRFNLRTSKDPEHEGCYLSVGHSQPLEDCSFNMTAKTFFIIHGWTMSGIFENWLHKLVSALHTREKDANVVVVDWLPLAHQLYTDAVNNTRVVGHSIARMLDWLQEKDDFSLGNVHLIGYSLGAHVAGYAGNFVKGTVGRITGLDPAGPMFEGADIHKRLSPDDADFVDVLHTYTRSFGLSIGIQMPVGHIDIYPNGGDFQPGCGLNDVLGSIAYGTITEVVKCEHERAVHLFVDSLVNQDKPSFAFQCTDSNRFKKGICLSCRKNRCNSIGYNAKKMRNKRNSKMYLKTRAGMPFRVYHYQMKIHVFSYKNMGEIEPTFYVTLYGTNADSQTLPLEIVERIEQNATNTFLVYTEEDLGDLLKIQLTWEGASQSWYNLWKEFRSYLSQPRNPGRELNIRRIRVKSGETQRKLTFCTEDPENTSISPGRELWFRKCRDGWRMKNETSPTVELP
# B2: PRPSAP2 (protein, UniProt O60256 1-369, looked up)
# Phosphoribosyl pyrophosphate …: MFCVTPPELETKMNITKGGLVLFSANSNSSCMELSKKIAERLGVEMGKVQVYQEPNRETRVQIQESVRGKDVFIIQTVSKDVNTTIMELLIMVYACKTSCAKSIIGVIPYFPYSKQCKMRKRGSIVSKLLASMMCKAGLTHLITMDLHQKEIQGFFNIPVDNLRASPFLLQYIQEEIPDYRNAVIVAKSPASAKRAQSFAERLRLGIAVIHGEAQDAESDLVDGRHSPPMVRSVAAIHPSLEIPMLIPKEKPPITVVGDVGGRIAIIVDDIIDDVDSFLAAAETLKERGAYKIFVMATHGLLSSDAPRRIEESAIDEVVVTNTIPHEVQKLQCPKIKTVDISMILSEAIRRIHNGESMSYLFRNIGLDD
# B3: RAP2B (protein, UniProt P61225 1-180, looked up)
# Ras-related protein Rap-2b: MREYKVVVLGSGGVGKSALTVQFVTGSFIEKYDPTIEDFYRKEIEVDSSPSVLEILDTAGTEQFASMRDLYIKNGQGFILVYSLVNQQSFQDIKPMRDQIIRVKRYERVPMILVGNKVDLEGEREVSYGEGKALAEEWSCPFMETSAKNKASVDELFAEIVRQMNYAAQPNGDEGCCSAC
# B4: AP1B1 (protein, UniProt Q10567 1-949, looked up)
# AP-1 complex subunit beta-1: MTDSKYFTTTKKGEIFELKAELNSDKKEKKKEAVKKVIASMTVGKDVSALFPDVVNCMQTDNLELKKLVYLYLMNYAKSQPDMAIMAVNTFVKDCEDPNPLIRALAVRTMGCIRVDKITEYLCEPLRKCLKDEDPYVRKTAAVCVAKLHDINAQLVEDQGFLDTLKDLISDSNPMVVANAVAALSEIAESHPSSNLLDLNPQSINKLLTALNECTEWGQIFILDCLANYMPKDDREAQSICERVTPRLSHANSAVVLSAVKVLMKFMEMLSKDLDYYGTLLKKLAPPLVTLLSAEPELQYVALRNINLIVQKRPEILKHEMKVFFVKYNDPIYVKLEKLDIMIRLASQANIAQVLAELKEYATEVDVDFVRKAVRAIGRCAIKVEQSAERCVSTLLDLIQTKVNYVVQEAIVVIKDIFRKYPNKYESVIATLCENLDSLDEPEARAAMIWIVGEYAERIDNADELLESFLEGFHDESTQVQLQLLTAIVKLFLKKPTETQELVQQVLSLATQDSDNPDLRDRGYIYWRLLSTDPVAAKEVVLAEKPLISEETDLIEPTLLDELICYIGTLASVYHKPPSAFVEGGRGVVHKSLPPRTASSESAESPETAPTGAPPGEQPDVIPAQGDLLGDLLNLDLGPPVSGPPLATSSVQMGAVDLLGGGLDSLMGDEPEGIGGTNFVAPPTAAVPANLGAPIGSGLSDLFDLTSGVGTLSGSYVAPKAVWLPAMKAKGLEISGTFTRQVGSISMDLQLTNKALQVMTDFAIQFNRNSFGLAPAAPLQVHAPLSPNQTVEISLPLSTVGSVMKMEPLNNLQVAVKNNIDVFYFSTLYPLHILFVEDGKMDRQMFLATWKDIPNENEAQFQIRDCPLNAEAASSKLQSSNIFTVAKRNVEGQDMLYQSLKLTNGIWVLAELRIQPGNPSCTDLELSLKCRAPEVSQHVYQAYETILKN
# B5: NDNF (protein, UniProt Q8TB73 20-568, looked up)
# Protein NDNF: QKLPTRDEELFQMQIRDKAFFHDSSVIPDGAEISSYLFRDTPKRYFFVVEEDNTPLSVTVTPCDAPLEWKLSLQELPEDRSGEGSGDLEPLEQQKQQIINEEGTELFSYKGNDVEYFISSSSPSGLYQLDLLSTEKDTHFKVYATTTPESDQPYPELPYDPRVDVTSLGRTTVTLAWKPSPTASLLKQPIQYCVVINKEHNFKSLCAVEAKLSADDAFMMAPKPGLDFSPFDFAHFGFPSDNSGKERSFQAKPSPKLGRHVYSRPKVDIQKICIGNKNIFTVSDLKPDTQYYFDVFVVNINSNMSTAYVGTFARTKEEAKQKTVELKDGKITDVFVKRKGAKFLRFAPVSSHQKVTFFIHSCLDAVQIQVRRDGKLLLSQNVEGIQQFQLRGKPKAKYLVRLKGNKKGASMLKILATTRPTKQSFPSLPEDTRIKAFDKLRTCSSATVAWLGTQERNKFCIYKKEVDDNYNEDQKKREQNQCLGPDIRKKSEKVLCKYFHSQNLQKAVTTETIKGLQPGKSYLLDVYVIGHGGHSVKYQSKVVKTRKFC
# B6: ZYX (protein, UniProt Q15942 2-572, looked up)
# Zyxin: AAPRPSPAISVSVSAPAFYAPQKKFGPVVAPKPKVNPFRPGDSEPPPAPGAQRAQMGRVGEIPPPPPEDFPLPPPPLAGDGDDAEGALGGAFPPPPPPIEESFPPAPLEEEIFPSPPPPPEEEGGPEAPIPPPPQPREKVSSIDLEIDSLSSLLDDMTKNDPFKARVSSGYVPPPVATPFSSKSSTKPAAGGTAPLPPWKSPSSSQPLPQVPAPAQSQTQFHVQPQPQPKPQVQLHVQSQTQPVSLANTQPRGPPASSPAPAPKFSPVTPKFTPVASKFSPGAPGGSGSQPNQKLGHPEALSAGTGSPQPPSFTYAQQREKPRVQEKQHPVPPPAQNQNQVRSPGAPGPLTLKEVEELEQLTQQLMQDMEHPQRQNVAVNELCGRCHQPLARAQPAVRALGQLFHIACFTCHQCAQQLQGQQFYSLEGAPYCEGCYTDTLEKCNTCGEPITDRMLRATGKAYHPHCFTCVVCARPLEGTSFIVDQANRPHCVPDYHKQYAPRCSVCSEPIMPEPGRDETVRVVALDKNFHMKCYKCEDCGKPLSIEADDNGCFPLDGHVLCRKCHTARAQT
# B7: WDR26 (protein, UniProt Q9H7D7 1-661, looked up)
# WD repeat-containing protein …: MQANGAGGGGGGGGGGGGGGGGGGGQGQTPELACLSAQNGESSPSSSSSAGDLAHANGLLPSAPSAASNNSNSLNVNNGVPGGAAAASSATVAAASATTAASSSLATPELGSSLKKKKRLSQSDEDVIRLIGQHLNGLGLNQTVDLLMQESGCRLEHPSATKFRNHVMEGDWDKAENDLNELKPLVHSPHAIVVRGALEISQTLLGIIVRMKFLLLQQKYLEYLEDGKVLEALQVLRCELTPLKYNTERIHVLSGYLMCSHAEDLRAKAEWEGKGTASRSKLLDKLQTYLPPSVMLPPRRLQTLLRQAVELQRDRCLYHNTKLDNNLDSVSLLIDHVCSRRQFPCYTQQILTEHCNEVWFCKFSNDGTKLATGSKDTTVIIWQVDPDTHLLKLLKTLEGHAYGVSYIAWSPDDNYLVACGPDDCSELWLWNVQTGELRTKMSQSHEDSLTSVAWNPDGKRFVTGGQRGQFYQCDLDGNLLDSWEGVRVQCLWCLSDGKTVLASDTHQRIRGYNFEDLTDRNIVQEDHPIMSFTISKNGRLALLNVATQGVHLWDLQDRVLVRKYQGVTQGFYTIHSCFGGHNEDFIASGSEDHKVYIWHKRSELPIAELTGHTRTVNCVSWNPQIPSMMASASDDGTVRIWGPAPFIDHQNIEEECSSMDS
# B8: GART (protein, UniProt P22102 2-1010, looked up)
# Trifunctional purine …: AARVLIIGSGGREHTLAWKLAQSHHVKQVLVAPGNAGTACSEKISNTAISISDHTALAQFCKEKKIEFVVVGPEAPLAAGIVGNLRSAGVQCFGPTAEAAQLESSKRFAKEFMDRHGIPTAQWKAFTKPEEACSFILSADFPALVVKASGLAAGKGVIVAKSKEEACKAVQEIMQEKAFGAAGETIVIEELLDGEEVSCLCFTDGKTVAPMPPAQDHKRLLEGDGGPNTGGMGAYCPAPQVSNDLLLKIKDTVLQRTVDGMQQEGTPYTGILYAGIMLTKNGPKVLEFNCRFGDPECQVILPLLKSDLYEVIQSTLDGLLCTSLPVWLENHTALTVVMASKGYPGDYTKGVEITGFPEAQALGLEVFHAGTALKNGKVVTHGGRVLAVTAIRENLISALEEAKKGLAAIKFEGAIYRKDVGFRAIAFLQQPRSLTYKESGVDIAAGNMLVKKIQPLAKATSRSGCKVDLGGFAGLFDLKAAGFKDPLLASGTDGVGTKLKIAQLCNKHDTIGQDLVAMCVNDILAQGAEPLFFLDYFSCGKLDLSVTEAVVAGIAKACGKAGCALLGGETAEMPDMYPPGEYDLAGFAVGAMERDQKLPHLERITEGDVVVGIASSGLHSNGFSLVRKIVAKSSLQYSSPAPDGCGDQTLGDLLLTPTRIYSHSLLPVLRSGHVKAFAHITGGGLLENIPRVLPEKLGVDLDAQTWRIPRVFSWLQQEGHLSEEEMARTFNCGVGAVLVVSKEQTEQILRDIQQHKEEAWVIGSVVARAEGSPRVKVKNLIESMQINGSVLKNGSLTNHFSFEKKKARVAVLISGTGSNLQALIDSTREPNSSAQIDIVISNKAAVAGLDKAERAGIPTRVINHKLYKNRVEFDSAIDLVLEEFSIDIVCLAGFMRILSGPFVQKWNGKMLNIHPSLLPSFKGSNAHEQALETGVTVTGCTVHFVAEDVDAGQIILQEAVPVKRGDTVATLSERVKLAEHKIFPAALQLVASGTVQLGENGKICWVKEE
# B9: HNRNPC (protein, UniProt P07910 2-306, looked up)
# Heterogeneous nuclear …: ASNVTNKTDPRSMNSRVFIGNLNTLVVKKSDVEAIFSKYGKIVGCSVHKGFAFVQYVNERNARAAVAGEDGRMIAGQVLDINLAAEPKVNRGKAGVKRSAAEMYGSVTEHPSPSPLLSSSFDLDYDFQRDYYDRMYSYPARVPPPPPIARAVVPSKRQRVSGNTSRRGKSGFNSKSGQRGSSKSGKLKGDDLQAIKKELTQIKQKVDSLLENLEKIEKEQSKQAVEMKNDKSEEEQSSSSVKKDETNVKMESEGGADDSAEEGDLLDDDDNEDRGDDQLELIKDDEKEAEEGEDDRDSANGEDDS
# System: DYT1 patient plasma derived EVs
# Experiment: Plasma-derived EV proteomics (ExoQuick ULTRA, DIA LC/MS/MS), DYT1 vs Healthy Controls
# Design: species or system human
# Conditions: Hs. Plasma EVs (DYT1/WT); significance of genotype difference
# Description: Data was obtained for extracellular vesicles using previously acquired samples. The ExoQuick® ULTRA EV Isolation System was used to fractionate and enrich EVs from plasma. Isolated plasma EV samples were then submitted to proteomic analysis by the Duke Proteomics and Metabolomics Core Facility (DPMCF). At the DPMCF, quantitative (LC/MS/MS) was performed on 500 ng of each sample, using an EvoSep One UPLC system coupled to a Thermo Orbitrap Astral high-resolution accurate mass tandem mass spectrometer (Thermo). Briefly, the sample was eluted directly from an Evotip which was subjected to a low organic wash and then subjected to an analytical separation using a 1.7 μm EvoSep 150 um ID×15 cm endurance (EveoSep) column running an SPD30 gradient from approximately 5 to 30% acetonitrile with 0.1% formic acid with a column temperature of 50 C. Data collection on the Orbitrap Astral mass spectrometer was performed in a data-independent acquisition (DIA) mode of acquisition with a r=240,000 (@m/z 200) full MS scan from m/z 380-980 with a target AGC value of 4e5 ions. Fixed DIA, windows of 4 m/z from m/z 380 to 980 DIA MS/MS scans were acquired in the Astral with a target AGC value of 5e4 and a max fill time of 6 ms. HCD collision energy setting of 27% was used for all MS2 scans.
row,Molecule,-LogP
1,B1,1.303
2,B2,1.629
3,B3,2.656
4,B4,2.413
5,B5,1.312
6,B6,2.225
7,B7,1.772
8,B8,1.317
9,B9,2.933
